Laboratory results reported in the nanobody polyreactivity screen of Harvey et al. (2022).

Assay: yeast display, Sf9 membrane polyspecificity reagent, FACS + sequencing; frameworks hold sequencing errors
Outline: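 Sorting gates, low and high (top ~1%), were placed on anti-HA fluorescence to track expression and on streptavidin fluorescence to track reagent binding. A clone's polyreactivity label is taken from the gate it came out of. The reagent was 10% biotinylated, detergent-solubilized Sf9 membrane, applied for 1 hour at 4 °C to galactose-induced yeast display cells.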

Sequence | polyreactivity (PSR sort gate)
QVQLVESGGGLVQAGGSLRLSCAASGSIFTLYDMGWYRQAPGKERELVAAITSGGSTDYADSVKGRFTISRDNAKNTVYFQMNSLKPEDTAVYYCNAEAYPYWYRGASREYDYWGQGTQVTVSS | low polyreactivity
QVQLVESGGGLVQAGGSLRLSCAASGGIFYYYAMGWYRQAPGKERQLVAGISADGGSTYYADSVKGRFTISRDNAKNTVYLQMNSLKPEDTAVYYCAADGQFDDYYSLAFDYDYWGQGTQVTVSS | high polyreactivity
QFQLVESGGGLVQAGGSLRLSCAASGSIFYTYTMGWYRQAPGKDRVLVAAISFSDGDTYYADSVKGRFTISRDNAKNTVYLQMNSLKPEDTAVYYSNAYVYLPNYPYDYWGQGTQVTVSS | low polyreactivity
QVQLVESGGGLVQAGGSLRLSCAASGLFFYAYSMGWYRQAPAKERELVAAISGSGGNTYYADSVKGRFTISRDNAKNSVYLQMNSLKQEDTAVYYCAADYTAAYPDSMYYWGQGTQVTVSS | low polyreactivity
QVQLVDSGGGLVQAGGSLRLSCAASGRTFGYNAMGCYRQATGKERELVAAISSSGGSTYYADSVKGRFTISRDYAKNTVYLQMNSLKPEDTAVYYCATQGYSWAHGSDFWGQGTQVTVSS | low polyreactivity
QVQLVESGGGLVQAGGSLRLSCAASGRIFRVNAMGWYRQAPGKERELVAAISWIGGRTYYADSVKGRFTISRDNAKNTVYLQMNSQKPEDTAVYYCAAVGSSSTHWASRSYRYNYWGQGTQVTVSS | high polyreactivity
QVQLVESGGGLVQAGGSLRLSCAASGFTFATYAMGWYRQAPGKKGRLVAAISNAGSTKYADSVKGRFTISRDNAKNTVYLQMNSLKPEDTAVYYCAASTLYASSYYLYDYWGQGTQVTVSS | high polyreactivity
QVQLVESGGGLVQAGGSLRLSCDASGSIIISYDMGWYRQAPGKERELVAAIRSRVGSTYYSDSVKGRFTISRDNAKNTVYLQMNSLKPEDTAVYYCAADWVWADFDYWGQGTNVTVSS | low polyreactivity
QVQLVESGGGLVQAGGSLRLSCAASGSTLRAYTMGWYRQAPGKERELVATITRRGGTTYYADSVKGRFTISRDNAKNTVYLQMNSLKPEDTAVYYCAAKWYSTHRYDYWGQGTQVTVSS | high polyreactivity
QVQLVESGGGLVQAGGSLRLSCAASGSIFPEYAMGWYRQAPGKEREFVATIRWSGDSTYYADSVKGRFTISRDNAKNTVYLQMNSLKPEDTAVYYCAADQGRYGIIGWDDYWGQGTQVTVSS | low polyreactivity
PVQLVESGGGLVQAGGSLRLTCAASGRIFTGYAMGWYRQAPGKERELVAAISRGGSTNYADSVKGRFTISRDNEKNTVYLLMNSLKPEDTAFYYCAAGFDWDRGDYWGQGTQVTVSS | low polyreactivity
QVQLVESGGGLVQAGGSLRLSCAASGRTFDWNAMGWYRQAPGKERELVAAISGGGGSTYYADSVKGRFTISRDNAKNTVYLQMNSLKPEDTEVYYCATWNYYSYHRYDYWGQGTQVTVSS | high polyreactivity
QVQLVESGGGLVKAGGSLRLSCAASGFIFVYYAMGWYRQAPGKERELVARISWRGGRTYYADSVKGRFTISRDNAKNTVYLQMNSLKPEDTAVYYCNADFWNSHVWYDYWGQGTQVTVSS | high polyreactivity
QVQLVESGGGLVQAGGSLRLSCAASGSIFYGYAMGWYSQAPGKERELVAAISSSGGSTYYADSVKGRFTISRDNAKNTVYLQMNSLKTEDTAVDYCAADWDFVNGWFNYWGKGTQVTVSS | high polyreactivity
QVQLVESGGGLVQAGGSLRLSCAASGSTIRYYAMGWYRQAPGKERELLAAITKSGGSTYYADSVKGRFTISRDNAKNTVYLQMNSLKPEDTAVYFCAAVRRWYYPALSEHDYCGQGTQVTVSS | low polyreactivity
QVHLVESGGGLVQEGGSLLLSCAASGSIFQIYTMGRYRQAPGKERELVAAISSSVSTNYADSVKGRFTISRDNAKNTVYLQMHTLKPEDTAVYYCNRDDYNTADRDASGYWGQGTQVTVSS | low polyreactivity
QVQLGESGGGLVQAGGSLRLSCAASGRTFYWYTMGWYRQAPGKESELVAAISTRGVRTYYADSVKGRFTISRDNAKNTVYLQMNSLKPADTAVYYCNNYVAYDYWGQGTQVTVSS | low polyreactivity
QVQLVESGGGLVQAGGSLRLSCAASGSIFSYYAMGWDRQAPGKERELVASISWNGTSTYYADSVKGRFTISRDNAKNTVYLQMNSLKPEDTAVYYCNGRFIYRGTYDYWGQGTQVTVSS | low polyreactivity
QVQLVESGGGLVQAGGSLRLSCAASGSIFFSYAMGWYRQAPGKERELVAAITSSVDSTYYADSVKGRFTISRDNAKNTVYLQMNSLKPEDTAVYYCDARYRSGYYRYDYWGQGTQVTVSS | low polyreactivity
QVHLVESGGGLVQAGGSLRLSCAASGSIFSGYAMGWYRQAPGKEREFVAAISSSGGRTYYADSVKGRFTISRDNAKNTVYLQINSLKPEDTAVYYCNARRWPFNYDYWGQGTQVTVSS | high polyreactivity
QDQLVESGGGLVQAGGSLRLSCAASGSIFVIYAMGWYRPAPGKERQLVAAITTIGGRTYYADSVKGRFTISRDHAKNTVYLQMNSLKPEDTAVYYCAADIRSNRLYDGGYWGQGTQVTVSS | low polyreactivity
QVQLVESGGGLVQAGGSLRLSCAASGRIFPTYTMGWYRQAPGKERELVAGISYSGTSTSYADSVKGRFTISRDNAKNTVYLQMNSLKPEDTAVYYCAAKYYGRSFYYGYDYWGQGTQVTVSS | low polyreactivity

Sequence | polyreactivity (PSR sort gate)
QVQLVESGGGLVQAGGSLRLSCAASGFTFRVYAMGWYRTAPVKEREFVASITWGGGRTYYADSVKGRFTISRDNAKNTVYLLMNSLKPEDTAVYYCAAYGSLDSYVSYYYWGQGTQVTVSS | high polyreactivity
QVQLVESGGGLVQAGGSLRLICAASGRTFYYYGMGWYRQAPGKERELVASITNGGNTNYADSVKGRFTISRDNAKNPVYLQKHSLYPEDTAVYYCAKDVPYWRPVVRYDYWGQGTQVTVSS | low polyreactivity
QVQLVESGGGLVQAGGSLRLSCAASGFTFARYAMGWYRQAPGKERELVAAMTYRGGSTYYADSVKGRFTISRDNAKNTVYLQMNSLKPEDTAVYYCNAGRLWFPGVPEYDYWGQGTQVTVSS | high polyreactivity
QVQLQESVVGLVLAGGSLRLICSASANISVYGSMGWYRKAPGKEREFVATIDPGTNTNYADSVKDRFTISRDNAKNTVFLQINSLKPEYTAVYYCAVEGGSDWPYRYWGQGTQVTVSS | low polyreactivity
QVQLVESGGGLVQAGGSLRLSCVASGFTFIRYAMGWYRQAPGKERELVASITRGGSTYYADSVKGRFTISRDNAKYTVYLQMNSLKPEDTAVYYCATTSYYGYDYWGQGTQVTVSS | high polyreactivity
QVQLVESGGGIVQAGGSLRLSCPASGFIGVNGMGWYIQAPGKERELVAAISSGGSTNYADSVKGRFTMSRDNAKNTVYLQMNSLKPEDTAVYYCAKDFLLDSFYHTYRYRYDYWGQGTQVTVSS | low polyreactivity
QVQLVESGGGLVQAGGSLRLSCASSGSIFRYNAMGWYRQAPGKEREFVAAISYSGGRTYYADSLKGRFTISRDNAKNNVYLQMNIQKPEDTAVYYCAARLKRPFSGYDNWGQGTQVSVSS | high polyreactivity
QVQLVESGGGLVQAGGSLRLSCAASGRTFISYAMGWYRQAPGKERELVAAISSSGGSTYYADSVKGRFTISRDNAKNTVYLQMNSLIPEDTAVYYCNADSSASTYTFPFDYWGQGTQVTVSS | low polyreactivity
QVQLVESGVALVQAAGSLRLSCAASGSTFGYYTMGWYRQAPGKERELVAAISWSGGSTYYADSVKGRFTISRDHAKTTVYLQMNSLKPEDTAVYFCAAKTNRGSYSYEYWGQGTQVTVSS | high polyreactivity
QVQIVESGGGLVQAGGSLRLSCAASGRIFYGYAMGWYRQAPGKEREFVARINVSGTSTFYADSVKGRFTISRDNAKNTVYLQMNSLKPEDTAVYYCAARGLPSNYYYYVHGYIMDYWGQGTQVTVSS | low polyreactivity
QVQLVESGGGLVQAGGSLRLSCAASGGTFWSYAMGCYRQAPGKEREFVAAITTSAGRTNYADSVKGRFTISRDNAKNTVYLQMNSLKPEDTAVYYCAARSAYPGLGYGFDYWGQGTQVTVSS | low polyreactivity
QVQLVESGGGLVQAGGSLRLSCAASGITFKYYAMGWYRQAPGKERELVAAISRGGTTSYADSVKGRFTISRDNAKNTVYLQMNSLKPEETAVYYCAAKYWWYPYFTVDYDYWGQGTQVTVSS | high polyreactivity
QVQLVESGGGLVQAGGSLRLSCAASGRTFWYNAMGWYRQAPGKERELVATINSVGSTNYADSVKGRFTISRDNAKNTVYLQMNSLKPEDTAVYDCNAGYGYVRGRKGGAIVKYYYWGQGTQVTVSS | high polyreactivity
QVQLVESGGGLVQAGGSLRLSCAASGSTFPTYAMGRDRTAPGKEREMVAAIDWSDGSITYYADSVKGRFTISRDNAKNTVYLQMNSLKPEDTAVYYCAKDNSQYGWGYDYWGQGTQVTVSS | low polyreactivity
QVQLVESGGGLVQAGGSLRLSCAASGRTFPDYAMGWYRQAPGKERELVARISYSGGSTSYADSVKGRFTISRDNAKNTVYLQMNSLKPEDTAVYYCNRETAYAVGRFEYCGQGTQVTVSS | low polyreactivity
QVQLVESGGGLVQAGGSLRLSCAASGRIFGHYAMGWYRQAPGKERELVASITDGTSTNYADSVKGRFTISRDNAKNTVYLQMNSLKPEDTADYYCAADDRLQFPRGDYCGQGTQVTVSS | low polyreactivity
QVQLVESVGGLVQAGGSLRLSCASSGRIFAWYGMGSYRQAPGKEMELVAAINSGGRTYYEDSVKGRFTISRVNAKNTVYLQMNSLKPEDTAVYYCAAKLAAYGWRFHYGYWGQGTQVTVSS | high polyreactivity
QVQLVESGGGLVQAGGSLRLSCAASGSILSSYAMGWYRQAPGKERELVAAISKSGTRTYYADSVKGRFTISRDNAKNTVYLQMNSLKPEDTAVYYCAVVYYGSIFVLEYDYWGQGTQVTVSS | high polyreactivity
QVQLVESGGGLVQAGGSLRFSCAASGSSFGANTMGWYRQAPGKERELVAGITSGARTYYADSVKGRFTISRDNAKNTVYLQMNSLKPEDTAVYYCAAKYAWRRYGYWGQGTQVTVSS | high polyreactivity
QVQLVESGGGLVQAGGSLRLSCAASGTFQVNAMGWYIQAPGKERELVAAINSNGGSTYYADSVKGRFTISRDNAKNTVYLQMNSLKPEDTAVYYCAAVYQRRRSYYWGQGTQVTVSS | high polyreactivity
QVQLVESGGGLVQAGCSLRLSCAASGRILFGYAMGWYRQAPGKERELVAAITGSGDSTYYADSVKGRFTISRDNAKNAVYLQLYSLKPEDTAVYYCATEEVYGQGNYWGHGTQVTVSS | low polyreactivity
